This passage reports response results from PMC12872393, “NCOA4 initiates ferritinophagy by avidly binding GATE16 using two short linear interaction motifs” (Life Science Alliance, 2026).

Substitutions are numbered along the chain they refer to.

The target of this test is (GST-GATE16)2, P60520. Description: BLI. As to conditions: chain shown with the change; 5 µM (GST-GATE16)2; NCOA4 construct immobilized to the probe; parent: est. 0.105; read off a plot.
(GST-GATE16)2, P60520, sequence (P60520 whole entry): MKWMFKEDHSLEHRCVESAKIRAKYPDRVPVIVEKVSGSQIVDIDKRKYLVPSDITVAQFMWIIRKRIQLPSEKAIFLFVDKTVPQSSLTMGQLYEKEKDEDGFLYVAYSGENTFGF

B1: biotinylated AviTag-His6-NCOA4^383−522-MBP, Q13772 486F:A (protein)
chain: SMVTEDWLVQNHQDPCKVEEVCRANEPCTSFAECVCDENCEKEALYKWLLKKEGKDKNGMPVEPKPEPEKHKDSLNMWLCPRKEVIEQTKAPKAMTPSRIADSAQVIKNSPLSEWLIRPPYKEGSPKEVPGTEDRAGKQK
For B1, the response stood at 0.026 nm.

B2: biotinylated AviTag-His6-NCOA4^383−522-MBP, Q13772 413F:A (protein)
chain: B1 chain with F31A, A104F
On to B2, for which the response was determined as 0.056 nm.
